# From US20030092613A1, “Alpha7 nicotinic receptor peptides as ligands for beta amyloid peptides” (priority 2000, published 2003)
# T1: 125I-α-bungarotoxin, P60615
# T1 chain: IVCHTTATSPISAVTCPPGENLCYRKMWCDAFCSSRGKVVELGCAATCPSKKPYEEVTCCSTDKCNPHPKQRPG
# Target: β-amyloid1-42, P05067
# Experiment: cell-based or functional assay
Binder,ACh rel % Inh @ 100 µM,Inh ACh rel IC50
Ac-GIPGKRSERFYECCK-NH2 (cysteine pairing not given here),73%,1.21 µM
Ac-SERFYECCKAP-NH2 (cysteine pairing not given here),75%,0.426 µM
Ac-SERFYECAKEP-NH2,85%,0.165 µM
Ac-SERFYECCAEP-NH2 (cysteine pairing not given here),19%,> 10 µM
Ac-SERFYACCKEP-NH2 (cysteine pairing not given here),14%,> 10 µM
Ac-SERAYECCKEP-NH2 (cysteine pairing not given here),14%,> 10 µM
Ac-SERFAECCKEP-NH2 (cysteine pairing not given here),18%,> 10 µM
Ac-SERFYECCKEA-NH2 (cysteine pairing not given here),59%,< 10 µM
Ac-IPGKRSERFYECCKEPYPDV-NH2 (cysteine pairing not given here),73%,0.626 µM
Ac-SARFYECCKEP-NH2 (cysteine pairing not given here),13%,> 10 µM
Ac-SERFYEACKEP-NH2,19%,> 10 µM
Ac-AERFYECCKEP-NH2 (cysteine pairing not given here),15%,> 10 µM
Ac-SEAFYECCKEP-NH2 (cysteine pairing not given here),70%,0.277 µM
Ac-IPGKRSERFYECCKEPYP-NH2 (cysteine pairing not given here),79%,0.71 µM
Ac-SERFYECCKEP-NH2 (cysteine pairing not given here),89%,0.125 µM

# Target: T1, 125I-α-bungarotoxin, P60615
# Experiment: not given
row,Binder,IC50
1,Ac-SERFYECCKAP-NH2 (cysteine pairing not given here),> 100 µM
2,Ac-SERFYECAKEP-NH2,> 100 µM
3,Ac-SERFYECCAEP-NH2 (cysteine pairing not given here),1.3 µM
4,Ac-SERFYACCKEP-NH2 (cysteine pairing not given here),9.5 µM
5,Ac-SERAYECCKEP-NH2 (cysteine pairing not given here),> 100 µM
6,Ac-SERFAECCKEP-NH2 (cysteine pairing not given here),> 100 µM
7,Ac-SERFYECCKEA-NH2 (cysteine pairing not given here),> 100 µM
8,Ac-IPGKRSERFYECCKEPYPDV-NH2 (cysteine pairing not given here),0.2 µM
9,Ac-SARFYECCKEP-NH2 (cysteine pairing not given here),8.4 µM
10,Ac-SERFYEACKEP-NH2,> 100 µM
11,Ac-AERFYECCKEP-NH2 (cysteine pairing not given here),15 µM
12,Ac-SEAFYECCKEP-NH2 (cysteine pairing not given here),9.6 µM
13,Ac-SERFYECCKEP-NH2 (cysteine pairing not given here),19 µM
